In article PMC6181373:
Where “and” joins values, the source holds several entries; their conditions need not be identical. Equal entries are not always repeated.

Legend:
Assay in all cases: SPRi
Details in all cases: 5' disulfide, aptamer on gold chip, 10 mM HEPES, 120 mM NaCl, 10 mM KCl, 5 mM MgCl2, pH 7.4, targets in PBS with 0.1% Tween, random-DNA signal subtracted, temperature …
[1] = molecular target: SD-LDL (small dense LDL particle; ApoB100 lipoprotein) (UniProt P04114)
[2] = molecular target: LDL particle (all LDL-P; ApoB100 lipoprotein) (UniProt P04114)
HDL particle = tested on: HDL particle
[3] = molecular target: LDL particle (all LDL-P; ApoB100 lipoprotein) (UniProt P04114); remark: listed apart in the source
[4] = molecular target: LF-LDL (LDL subfraction particle; ApoB100 lipoprotein) (UniProt P04114)

Row | Sequence | Kd [1] | Kd [2] | Kd (HDL particle) | Kd [3] | Kd [4]
1 | AACTACATGGTATGTGGTGAACTAAACCATTCTTGTCTCGCATTTTTCTCTTTTATATTATTTGACGTACAATGTACCC [LDL-A38] | 0.234 nM | 0.0455 nM | 11.5 nM | 0.0207 nM and 0.0178 nM | –
2 | AACTACATGGTATGTGGTGAACTAACCTTAATTTACCCTTGTTTTATCATTTCCATCATAGCTGACGTACAATGTACCC [LDL-A12] | 0.023 nM | 0.0497 nM | 9.69 nM | 0.0108 nM and 0.0466 nM | –
3 | AACTACATGGTATGTGGTGAACTACCTCGATTTTATATTATTTCGCTTACCAACAACTGCAGAGACGTACAATGTACCC [LDL-A1] | 0.302 nM | 0.0531 nM | 8.26 nM | 0.0214 nM | 0.0327 nM
4 | AACTACATGGTATGTGGTGAACTGTCAGCTTCTTCTATATAATTCACCTTGCCTCTCGTTCCTGACGTACAATGTACCC [LDL-A2] | – | 0.0421 nM | 7.25 nM | 0.015 nM and 0.00512 nM | 0.0159 nM
